How the values were obtained:
[1] = target: MART-1 peptide on HLA-A*02:01 (human); experiment: CD107a by flow cytometry; sorted TCR+ CD8- T cells incubated for 5 hours with peptide-loaded T2 cells. The result sentence names SEQ ID NO: 56, but the method says the cells were loaded with the analogue SEQ ID NO: 80.; full-length, on cells
[2] = target: MART-1 26-35 peptide (SEQ ID NO: 56) presented by HLA-A2 on cells (human); experiment: cell-based or functional assay
[3] = target: TGFβRII frameshift peptide p573 (SEQ ID NO: 1) presented by HLA-A2 on cells (human); experiment: cell-based or functional assay

DMF5
EC50 of peptide [1]: 7 nM

MART-1-specific TCR DMF5 (on the surface of transduced T-cells)
EC50 of the peptide for CD107a staining of TCR+ CD8- T-cells after 5 hours with peptide-loaded HLA-A2+ T2 cells [2]: 7 nM

B1: Radium-1 TCR (full-length, on the surface of T-cells) (TCR, V domains shown)
V domain 1: GIQVEQSPPDLILQEGANSTLRCNFSDSVNNLQWFHQNPWGQLINLFYIPSGTKQNGRLSATTVATERYSLLYISSSQTTDSGVYFCAVNAGNMLTFGGGTRLMVKP
V domain 2: DVKVTQSSRYLVKRTGEKVFLECVQDMDHENMFWYRQDPGLGLRLIYFSYDVKMKEKGDIPEGYSVSREKKERFSLILESASTNQTSMYLCASSSGVTGELFFGEGSRLTVLE
EC50 of the peptide for CD107a staining of TCR+ CD8- T-cells after 5 hours with peptide-loaded HLA-A2+ T2 cells [3]: 2 nM

Reference: patent publication US20190336529A1 (OSLO UNIVERSITETSSYKEHUS HF, published 2019)
